Ends that are not written are not given here. * marks the point of attachment. C18 diacid = O=C(O)CCCCCCCCCCCCCCCCC(=O)*
Assays:
[1] = target: T1, human amylin 3(a) receptor (human calcitonin receptor co-expressed with RAMP-3) (human, UniProt P30988 25-474; O60896 24-148, limits assumed); test: cell-based or functional assay
T1 sequence (looked up) 1: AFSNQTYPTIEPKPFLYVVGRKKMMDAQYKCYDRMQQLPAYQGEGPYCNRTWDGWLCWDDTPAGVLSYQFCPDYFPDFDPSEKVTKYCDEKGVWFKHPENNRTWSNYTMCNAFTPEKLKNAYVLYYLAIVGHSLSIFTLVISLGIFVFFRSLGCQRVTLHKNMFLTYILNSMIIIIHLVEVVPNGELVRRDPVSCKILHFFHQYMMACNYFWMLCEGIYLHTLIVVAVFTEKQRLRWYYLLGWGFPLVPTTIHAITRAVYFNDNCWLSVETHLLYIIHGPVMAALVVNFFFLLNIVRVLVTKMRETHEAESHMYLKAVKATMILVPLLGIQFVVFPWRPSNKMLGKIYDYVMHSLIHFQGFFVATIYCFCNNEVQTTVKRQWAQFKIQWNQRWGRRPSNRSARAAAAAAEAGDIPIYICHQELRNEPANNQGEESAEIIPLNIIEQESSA
T1 sequence (looked up) 2: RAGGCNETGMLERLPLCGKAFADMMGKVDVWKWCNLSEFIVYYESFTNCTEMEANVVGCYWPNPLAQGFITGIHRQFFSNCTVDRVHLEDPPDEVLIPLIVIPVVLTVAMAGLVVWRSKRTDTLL

[2] = target: T2, human calcitonin receptor (human, UniProt P30988 25-474); test: cell-based or functional assay
T2 sequence (looked up): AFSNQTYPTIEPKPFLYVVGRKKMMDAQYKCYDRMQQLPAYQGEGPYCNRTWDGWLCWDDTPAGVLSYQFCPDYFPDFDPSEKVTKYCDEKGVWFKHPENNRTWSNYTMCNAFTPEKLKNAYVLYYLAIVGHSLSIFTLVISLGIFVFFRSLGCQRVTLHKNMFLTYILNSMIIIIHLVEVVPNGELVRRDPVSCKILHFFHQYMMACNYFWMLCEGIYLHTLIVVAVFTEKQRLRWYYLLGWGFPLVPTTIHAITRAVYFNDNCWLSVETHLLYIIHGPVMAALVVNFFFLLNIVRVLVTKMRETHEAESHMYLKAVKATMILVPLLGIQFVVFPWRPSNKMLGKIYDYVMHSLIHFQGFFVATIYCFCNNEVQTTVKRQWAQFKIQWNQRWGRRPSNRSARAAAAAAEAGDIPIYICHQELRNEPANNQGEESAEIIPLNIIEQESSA

B1: [30S, 31G]mimylin (peptide)
peptide: EASELSTAALGRLSAELHELATLPRTETGSGSP-NH2
In the case of B1, the “hAmylin-R funct. EC50 (pM)” value [1] is reported as 5 pM and the “hCTR funct. EC50 (pM)” value [2] is reported as 2 pM.

B2: mimylin (peptide)
peptide: EASELSTAALGRLSAELHELATLPRTETGPESP-NH2
For B2, the “hAmylin-R funct. EC50 (pM)” value [1] was 3 pM and the “hCTR funct. EC50 (pM)” value [2] was 1 pM.

B3: [N-terminal(C18 diacid), 8L]mimylin (peptide)
peptide: {C18 diacid}-EASELSTLALGRLSAELHELATLPRTETGPESP-NH2
SMILES: CC(C)C[C@H](NC(=O)[C@H](C)NC(=O)[C@H](CC(C)C)NC(=O)[C@@H](NC(=O)[C@H](CO)NC(=O)[C@H](CC(C)C)NC(=O)[C@H](CCC(=O)O)NC(=O)[C@H](CO)NC(=O)[C@H](C)NC(=O)[C@H](CCC(=O)O)NC(=O)CCCCCCCCCCCCCCCCC(=O)O)[C@@H](C)O)C(=O)NCC(=O)N[C@@H](CCCNC(=N)N)C(=O)N[C@@H](CC(C)C)C(=O)N[C@@H](CO)C(=O)N[C@@H](C)C(=O)N[C@@H](CCC(=O)O)C(=O)N[C@@H](CC(C)C)C(=O)N[C@@H](Cc1c[nH]cn1)C(=O)N[C@@H](CCC(=O)O)C(=O)N[C@@H](CC(C)C)C(=O)N[C@@H](C)C(=O)N[C@H](C(=O)N[C@@H](CC(C)C)C(=O)N1CCC[C@H]1C(=O)N[C@@H](CCCNC(=N)N)C(=O)N[C@H](C(=O)N[C@@H](CCC(=O)O)C(=O)N[C@H](C(=O)NCC(=O)N1CCC[C@H]1C(=O)N[C@@H](CCC(=O)O)C(=O)N[C@@H](CO)C(=O)N1CCC[C@H]1C(N)=O)[C@@H](C)O)[C@@H](C)O)[C@@H](C)O
In the case of B3, the “hAmylin-R funct. EC50 (pM)” value [1] is reported as 9 pM and the “hCTR funct. EC50 (pM)” value [2] is reported as 7 pM.

B4: [des1, 6T, 9V, 14E, 21T, 30T, 31G, 32T]mimylin (peptide)
peptide: ASELTTAVLGRLEAELHELTTLPRTETGTGTP-NH2
With B4 the “hAmylin-R funct. EC50 (pM)” value [1] was 629 pM and the “hCTR funct. EC50 (pM)” value [2] was 103 pM.

B5: [C-terminal(-)]mimylin (peptide)
peptide: EASELSTAALGRLSAELHELATLPRTETGPESP-OH
B5 was tested, and the “hAmylin-R funct. EC50 (pM)” value [1] was 23600 pM and the “hCTR funct. EC50 (pM)” value [2] was 840 pM.

B6: [N-terminal(C18 diacid), 9L]mimylin (peptide)
peptide: {C18 diacid}-EASELSTALLGRLSAELHELATLPRTETGPESP-NH2
SMILES: CC(C)C[C@H](NC(=O)[C@H](C)NC(=O)[C@@H](NC(=O)[C@H](CO)NC(=O)[C@H](CC(C)C)NC(=O)[C@H](CCC(=O)O)NC(=O)[C@H](CO)NC(=O)[C@H](C)NC(=O)[C@H](CCC(=O)O)NC(=O)CCCCCCCCCCCCCCCCC(=O)O)[C@@H](C)O)C(=O)N[C@@H](CC(C)C)C(=O)NCC(=O)N[C@@H](CCCNC(=N)N)C(=O)N[C@@H](CC(C)C)C(=O)N[C@@H](CO)C(=O)N[C@@H](C)C(=O)N[C@@H](CCC(=O)O)C(=O)N[C@@H](CC(C)C)C(=O)N[C@@H](Cc1c[nH]cn1)C(=O)N[C@@H](CCC(=O)O)C(=O)N[C@@H](CC(C)C)C(=O)N[C@@H](C)C(=O)N[C@H](C(=O)N[C@@H](CC(C)C)C(=O)N1CCC[C@H]1C(=O)N[C@@H](CCCNC(=N)N)C(=O)N[C@H](C(=O)N[C@@H](CCC(=O)O)C(=O)N[C@H](C(=O)NCC(=O)N1CCC[C@H]1C(=O)N[C@@H](CCC(=O)O)C(=O)N[C@@H](CO)C(=O)N1CCC[C@H]1C(N)=O)[C@@H](C)O)[C@@H](C)O)[C@@H](C)O
For B6, the “hAmylin-R funct. EC50 (pM)” value [1] was 28 pM and the “hCTR funct. EC50 (pM)” value [2] was 13 pM.

B7: [N-terminal(C18 diacid), 6H]mimylin (peptide)
peptide: {C18 diacid}-EASELHTAALGRLSAELHELATLPRTETGPESP-NH2
SMILES: CC(C)C[C@H](NC(=O)[C@H](C)NC(=O)[C@H](C)NC(=O)[C@@H](NC(=O)[C@H](Cc1c[nH]cn1)NC(=O)[C@H](CC(C)C)NC(=O)[C@H](CCC(=O)O)NC(=O)[C@H](CO)NC(=O)[C@H](C)NC(=O)[C@H](CCC(=O)O)NC(=O)CCCCCCCCCCCCCCCCC(=O)O)[C@@H](C)O)C(=O)NCC(=O)N[C@@H](CCCNC(=N)N)C(=O)N[C@@H](CC(C)C)C(=O)N[C@@H](CO)C(=O)N[C@@H](C)C(=O)N[C@@H](CCC(=O)O)C(=O)N[C@@H](CC(C)C)C(=O)N[C@@H](Cc1c[nH]cn1)C(=O)N[C@@H](CCC(=O)O)C(=O)N[C@@H](CC(C)C)C(=O)N[C@@H](C)C(=O)N[C@H](C(=O)N[C@@H](CC(C)C)C(=O)N1CCC[C@H]1C(=O)N[C@@H](CCCNC(=N)N)C(=O)N[C@H](C(=O)N[C@@H](CCC(=O)O)C(=O)N[C@H](C(=O)NCC(=O)N1CCC[C@H]1C(=O)N[C@@H](CCC(=O)O)C(=O)N[C@@H](CO)C(=O)N1CCC[C@H]1C(N)=O)[C@@H](C)O)[C@@H](C)O)[C@@H](C)O
B7 was tested, and the “hAmylin-R funct. EC50 (pM)” value [1] was 15 pM and the “hCTR funct. EC50 (pM)” value [2] was 9 pM.

B8: [des1, 5V, 9V, 30S, 31G]mimylin (peptide)
peptide: ASEVSTAVLGRLSAELHELATLPRTETGSGSP-NH2
For B8, the “hAmylin-R funct. EC50 (pM)” value [1] was 7 pM and the “hCTR funct. EC50 (pM)” value [2] was 2 pM.

B9: [N-terminal(C18 diacid), 18A]mimylin (peptide)
peptide: {C18 diacid}-EASELSTAALGRLSAELAELATLPRTETGPESP-NH2
SMILES: CC(C)C[C@H](NC(=O)[C@H](C)NC(=O)[C@H](C)NC(=O)[C@@H](NC(=O)[C@H](CO)NC(=O)[C@H](CC(C)C)NC(=O)[C@H](CCC(=O)O)NC(=O)[C@H](CO)NC(=O)[C@H](C)NC(=O)[C@H](CCC(=O)O)NC(=O)CCCCCCCCCCCCCCCCC(=O)O)[C@@H](C)O)C(=O)NCC(=O)N[C@@H](CCCNC(=N)N)C(=O)N[C@@H](CC(C)C)C(=O)N[C@@H](CO)C(=O)N[C@@H](C)C(=O)N[C@@H](CCC(=O)O)C(=O)N[C@@H](CC(C)C)C(=O)N[C@@H](C)C(=O)N[C@@H](CCC(=O)O)C(=O)N[C@@H](CC(C)C)C(=O)N[C@@H](C)C(=O)N[C@H](C(=O)N[C@@H](CC(C)C)C(=O)N1CCC[C@H]1C(=O)N[C@@H](CCCNC(=N)N)C(=O)N[C@H](C(=O)N[C@@H](CCC(=O)O)C(=O)N[C@H](C(=O)NCC(=O)N1CCC[C@H]1C(=O)N[C@@H](CCC(=O)O)C(=O)N[C@@H](CO)C(=O)N1CCC[C@H]1C(N)=O)[C@@H](C)O)[C@@H](C)O)[C@@H](C)O
B9 was tested, and the “hAmylin-R funct. EC50 (pM)” value [1] was 4 pM and the “hCTR funct. EC50 (pM)” value [2] was 3 pM.

B10: [des1, 2L, 4G, 9V, 15Q, 21Q, 23Y, 30S, 31Q, 32T, 33Y]mimylin (peptide)
peptide: LSGLSTAVLGRLSQELHELQTYPRTETGSQTY-NH2
In the case of B10, the “hAmylin-R funct. EC50 (pM)” value [1] is reported as 11 pM and the “hCTR funct. EC50 (pM)” value [2] is reported as 6 pM.

B11: [N-terminal(C18 diacid), 5H]mimylin (peptide)
peptide: {C18 diacid}-EASEHSTAALGRLSAELHELATLPRTETGPESP-NH2
SMILES: CC(C)C[C@H](NC(=O)[C@H](C)NC(=O)[C@H](C)NC(=O)[C@@H](NC(=O)[C@H](CO)NC(=O)[C@H](Cc1c[nH]cn1)NC(=O)[C@H](CCC(=O)O)NC(=O)[C@H](CO)NC(=O)[C@H](C)NC(=O)[C@H](CCC(=O)O)NC(=O)CCCCCCCCCCCCCCCCC(=O)O)[C@@H](C)O)C(=O)NCC(=O)N[C@@H](CCCNC(=N)N)C(=O)N[C@@H](CC(C)C)C(=O)N[C@@H](CO)C(=O)N[C@@H](C)C(=O)N[C@@H](CCC(=O)O)C(=O)N[C@@H](CC(C)C)C(=O)N[C@@H](Cc1c[nH]cn1)C(=O)N[C@@H](CCC(=O)O)C(=O)N[C@@H](CC(C)C)C(=O)N[C@@H](C)C(=O)N[C@H](C(=O)N[C@@H](CC(C)C)C(=O)N1CCC[C@H]1C(=O)N[C@@H](CCCNC(=N)N)C(=O)N[C@H](C(=O)N[C@@H](CCC(=O)O)C(=O)N[C@H](C(=O)NCC(=O)N1CCC[C@H]1C(=O)N[C@@H](CCC(=O)O)C(=O)N[C@@H](CO)C(=O)N1CCC[C@H]1C(N)=O)[C@@H](C)O)[C@@H](C)O)[C@@H](C)O
B11 was tested, and the “hAmylin-R funct. EC50 (pM)” value [1] was 8 pM and the “hCTR funct. EC50 (pM)” value [2] was 6 pM.

B12: [des1, 4G, 9T, 15Q, 21Q, 23Y, 30S, 31G, 32T, 33Y]mimylin (peptide)
peptide: ASGLSTATLGRLSQELHELQTYPRTETGSGTY
modifications: ends and bridges not checked
With B12 the “hAmylin-R funct. EC50 (pM)” value [1] was 5 pM and the “hCTR funct. EC50 (pM)” value [2] was 4 pM.

B13: [des1, 4G, 9V, 15Q, 21Q, 23Y, 30S, 31G, 32T, 33Y]mimylin (peptide)
peptide: ASGLSTAVLGRLSQELHELQTYPRTETGSGTY
modifications: ends and bridges not checked
For B13, the “hAmylin-R funct. EC50 (pM)” value [1] was 8 pM and the “hCTR funct. EC50 (pM)” value [2] was 4 pM.

Reference: patent US20160272683A1 (Novo Nordisk, published 2016)
